Measured values published in US20240116985A1, “STAPLED PEPTIDES AND METHODS THEREOF” (priority 2020, published 2024).
Several values for one entry are separate records, joined by “and”; a condition that tells them apart may be missing. Equal values may be shown once. Starred links: 1 amine or outer side, 2 acyl side, 3 side chain; linkers in the order of their positions; H or OH if unused. Positions of bridges follow the written chain, without caps; N, C: chain ends. Non-standard residues stand in square brackets, D forms with d. PyrS2 = (S)-3-amino-1-((pent-4-en-1-yloxy)carbonyl)pyrrolidine-3-carboxylic acid, C=CCCCOC(=O)N1CC[C@@](N[*:1])(C(=O)[*:2])C1; B5 = 2-amino-2-(pent-4-en-1-yl)hept-6-enoic acid, C=CCCCC(CCCC=C)(N[*:1])C(=O)[*:2]; Bta = N[C@@H](Cc1csc2ccccc12)C(=O)O; αAllylPro = C=CC[C@@]1(C(=O)O)CCCN1; tBuAla = CC(C)(C)C[C@H](N)C(=O)O; 3Thi = N[C@@H](Cc1ccsc1)C(=O)O

How the values were obtained:
[1] = target: beta-catenin-Halo NanoBRET construct (Homo sapiens (Human)) (UniProt P35222); experiment: NanoBRET raw acceptor reading, Bcat-Halo/TCF4-Luc in HEK293 cells; plate row E (2.5 uM by plate map); competitor TCF4-Luc
Chain of beta-catenin-Halo NanoBRET construct (Homo sapiens (Human)) (P35222 whole entry): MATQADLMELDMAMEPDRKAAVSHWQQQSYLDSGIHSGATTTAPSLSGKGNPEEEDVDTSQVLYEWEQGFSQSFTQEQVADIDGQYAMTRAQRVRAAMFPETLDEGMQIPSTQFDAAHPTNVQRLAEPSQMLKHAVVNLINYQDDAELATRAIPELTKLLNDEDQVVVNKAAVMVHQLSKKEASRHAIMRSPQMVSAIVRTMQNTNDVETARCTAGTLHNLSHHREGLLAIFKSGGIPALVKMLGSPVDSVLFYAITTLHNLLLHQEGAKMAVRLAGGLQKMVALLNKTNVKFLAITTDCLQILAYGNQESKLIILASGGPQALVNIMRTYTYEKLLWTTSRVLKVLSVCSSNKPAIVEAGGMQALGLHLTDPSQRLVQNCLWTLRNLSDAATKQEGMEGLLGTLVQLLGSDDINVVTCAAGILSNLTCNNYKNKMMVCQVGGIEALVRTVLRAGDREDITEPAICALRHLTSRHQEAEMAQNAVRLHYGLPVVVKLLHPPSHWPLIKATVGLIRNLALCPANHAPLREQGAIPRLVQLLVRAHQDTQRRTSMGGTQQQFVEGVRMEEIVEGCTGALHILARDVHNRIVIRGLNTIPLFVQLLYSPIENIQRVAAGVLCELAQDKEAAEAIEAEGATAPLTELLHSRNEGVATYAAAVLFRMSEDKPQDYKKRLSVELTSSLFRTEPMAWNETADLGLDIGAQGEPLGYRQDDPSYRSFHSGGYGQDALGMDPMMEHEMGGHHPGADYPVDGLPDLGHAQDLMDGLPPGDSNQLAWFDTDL

[2] = target: beta-catenin-Halo NanoBRET construct (Homo sapiens (Human)) (UniProt P35222); experiment: NanoBRET, Bcat-Halo/TCF4-Luc in HEK293 cells; peptide 5 uM; replicate 2; competitor TCF4-Luc
[3] = target: beta-catenin-Halo (NanoBRET construct expressed in HEK293 cells) (Homo sapiens (Human)) (UniProt P35222); experiment: NanoBRET, HEK293 cells with Bcat-Halo and TCF4-Luc; plate row B (20 uM by plate map), plate column 5
Chain of beta-catenin-Halo (NanoBRET construct expressed in HEK293 cells) (Homo sapiens (Human)) (P35222 whole entry): as above

[4] = target: beta-catenin-Halo NanoBRET construct (Homo sapiens (Human)) (UniProt P35222); experiment: NanoBRET, Bcat-Halo/TCF4-Luc in HEK293 cells; peptide 1.25 uM; replicate 2; competitor TCF4-Luc
[5] = target: B-cat-Halo (beta-catenin HaloTag NanoBRET construct expressed in HEK293 cells) (UniProt P35222); experiment: NanoBRET in HEK293 cells, Bcat-Halo + TCF4-Luc, peptide at 10 uM
Chain of B-cat-Halo (beta-catenin HaloTag NanoBRET construct expressed in HEK293 cells) (P35222 whole entry): as above

[6] = target: beta-catenin-Halo NanoBRET construct (Homo sapiens (Human)) (UniProt P35222); experiment: NanoBRET raw acceptor reading, Bcat-Halo/TCF4-Luc in HEK293 cells; plate row B (20 uM by plate map); competitor TCF4-Luc
[7] = target: beta-catenin-Halo (NanoBRET construct expressed in HEK293 cells) (Homo sapiens (Human)) (UniProt P35222); experiment: NanoBRET, HEK293 cells with Bcat-Halo and TCF4-Luc; plate row F (1.25 uM by plate map), plate column 5
[8] = target: beta-catenin-Halo (NanoBRET construct expressed in HEK293 cells) (Homo sapiens (Human)) (UniProt P35222); experiment: NanoBRET, HEK293 cells with Bcat-Halo and TCF4-Luc; plate row E (2.5 uM by plate map), plate column 7
[9] = target: beta-catenin-Halo (NanoBRET construct expressed in HEK293 cells) (Homo sapiens (Human)) (UniProt P35222); experiment: NanoBRET, HEK293 cells with Bcat-Halo and TCF4-Luc; plate row G (0.625 uM by plate map), plate column 6
[10] = target: beta-catenin-Halo (NanoBRET construct expressed in HEK293 cells) (Homo sapiens (Human)) (UniProt P35222); experiment: NanoBRET, HEK293 cells with Bcat-Halo and TCF4-Luc; plate row F (1.25 uM by plate map), plate column 6
[11] = target: beta-catenin-Halo NanoBRET construct (Homo sapiens (Human)) (UniProt P35222); experiment: NanoBRET, Bcat-Halo/TCF4-Luc in HEK293 cells; peptide 0.625 uM; replicate 1; competitor TCF4-Luc
[12] = target: beta-catenin-Halo NanoBRET construct (Homo sapiens (Human)) (UniProt P35222); experiment: NanoBRET, Bcat-Halo/TCF4-Luc in HEK293 cells; peptide 20 uM; replicate 3; competitor TCF4-Luc
[13] = target: beta-catenin-Halo (NanoBRET construct expressed in HEK293 cells) (Homo sapiens (Human)) (UniProt P35222); experiment: NanoBRET, HEK293 cells with Bcat-Halo and TCF4-Luc; plate row B (20 uM by plate map), plate column 7
[14] = target: beta-catenin-Halo NanoBRET construct (Homo sapiens (Human)) (UniProt P35222); experiment: NanoBRET, Bcat-Halo/TCF4-Luc in HEK293 cells; peptide 5 uM; replicate 3; competitor TCF4-Luc
[15] = target: beta-catenin-Halo NanoBRET construct (Homo sapiens (Human)) (UniProt P35222); experiment: NanoBRET, Bcat-Halo/TCF4-Luc in HEK293 cells; peptide 1.25 uM; replicate 1; competitor TCF4-Luc
[16] = target: beta-catenin-Halo NanoBRET construct (Homo sapiens (Human)) (UniProt P35222); experiment: NanoBRET, Bcat-Halo/TCF4-Luc in HEK293 cells; peptide 20 uM; replicate 1; competitor TCF4-Luc
[17] = target: beta-catenin-Halo (NanoBRET construct expressed in HEK293 cells) (Homo sapiens (Human)) (UniProt P35222); experiment: NanoBRET, HEK293 cells with Bcat-Halo and TCF4-Luc; plate row G (0.625 uM by plate map), plate column 5
[18] = target: beta-catenin-Halo NanoBRET construct (Homo sapiens (Human)) (UniProt P35222); experiment: NanoBRET, Bcat-Halo/TCF4-Luc in HEK293 cells; peptide 2.5 uM; replicate 2; competitor TCF4-Luc
[19] = target: beta-catenin-Halo (NanoBRET construct expressed in HEK293 cells) (Homo sapiens (Human)) (UniProt P35222); experiment: NanoBRET, HEK293 cells with Bcat-Halo and TCF4-Luc; plate row D (5 uM by plate map), plate column 5
[20] = target: beta-catenin-Halo NanoBRET construct (Homo sapiens (Human)) (UniProt P35222); experiment: NanoBRET, Bcat-Halo/TCF4-Luc in HEK293 cells; peptide 0.625 uM; replicate 2; competitor TCF4-Luc
[21] = target: beta-catenin-Halo (NanoBRET construct expressed in HEK293 cells) (Homo sapiens (Human)) (UniProt P35222); experiment: NanoBRET, HEK293 cells with Bcat-Halo and TCF4-Luc; plate row C (10 uM by plate map), plate column 7
[22] = target: beta-catenin-Halo NanoBRET construct (Homo sapiens (Human)) (UniProt P35222); experiment: NanoBRET, Bcat-Halo/TCF4-Luc in HEK293 cells; peptide 20 uM; replicate 2; competitor TCF4-Luc
[23] = target: beta-catenin-Halo NanoBRET construct (Homo sapiens (Human)) (UniProt P35222); experiment: NanoBRET raw acceptor reading, Bcat-Halo/TCF4-Luc in HEK293 cells; plate row C (10 uM by plate map); competitor TCF4-Luc
[24] = target: beta-catenin-Halo NanoBRET construct (Homo sapiens (Human)) (UniProt P35222); experiment: NanoBRET, Bcat-Halo/TCF4-Luc in HEK293 cells; peptide 10 uM; replicate 1; competitor TCF4-Luc
[25] = target: beta-catenin-Halo (NanoBRET construct expressed in HEK293 cells) (Homo sapiens (Human)) (UniProt P35222); experiment: NanoBRET, HEK293 cells with Bcat-Halo and TCF4-Luc; plate row B (20 uM by plate map), plate column 6

Ac-[αAllylPro]F[tBuAla][B5]DDAADN[PyrS2][3Thi][Bta]Q-NH2 (staple 1-4, 4-11) [I-797]
Acceptor 600 LP emission [1]: 460 and 220 and 510
% Inhibition [2]: -28.4%
NanoBRET donor emission 450 BP (raw reading) [3]: 58500
% Inhibition [4]: -1.1%
NanoBRET % inh @ 10 uM [5]: 4.3%
Acceptor 600 LP emission [6]: 860 and 660 and 640
NanoBRET donor emission 450 BP (raw reading) [7]: 21800
NanoBRET donor emission 450 BP (raw reading) [8]: 40100
NanoBRET donor emission 450 BP (raw reading) [9]: 35700
NanoBRET donor emission 450 BP (raw reading) [10]: 34500
% Inhibition [11]: -56.5%
% Inhibition [12]: -19.5%
NanoBRET donor emission 450 BP (raw reading) [13]: 48000
% Inhibition [14]: -18.6%
% Inhibition [15]: -24.8%
% Inhibition [16]: -36.7%
NanoBRET donor emission 450 BP (raw reading) [17]: 25200
% Inhibition [18]: 26.5%
NanoBRET donor emission 450 BP (raw reading) [19]: 38800
% Inhibition [20]: -6.9%
NanoBRET donor emission 450 BP (raw reading) [21]: 40400
% Inhibition [22]: -0.3%
Acceptor 600 LP emission [23]: 790 and 350 and 470
% Inhibition [24]: -21.7%
NanoBRET donor emission 450 BP (raw reading) [25]: 55900
